Experimental data: PMC8387365

Columns and labels:
[1] = biological target: microtubules polymerised from tubulin; test: TIRF microscopy, GFP intensity on immobilised microtubules
PRC1(1-486) = PRC1(1-486) (UniProt O43663); test: BLI
[2] = biological target: full-length PRC1 (Protein Regulator of Cytokinesis-1) (UniProt O43663); test: BLI
full-length PRC1 (Protein Regulator of Cytokinesis-1), sequence (O43663 whole entry): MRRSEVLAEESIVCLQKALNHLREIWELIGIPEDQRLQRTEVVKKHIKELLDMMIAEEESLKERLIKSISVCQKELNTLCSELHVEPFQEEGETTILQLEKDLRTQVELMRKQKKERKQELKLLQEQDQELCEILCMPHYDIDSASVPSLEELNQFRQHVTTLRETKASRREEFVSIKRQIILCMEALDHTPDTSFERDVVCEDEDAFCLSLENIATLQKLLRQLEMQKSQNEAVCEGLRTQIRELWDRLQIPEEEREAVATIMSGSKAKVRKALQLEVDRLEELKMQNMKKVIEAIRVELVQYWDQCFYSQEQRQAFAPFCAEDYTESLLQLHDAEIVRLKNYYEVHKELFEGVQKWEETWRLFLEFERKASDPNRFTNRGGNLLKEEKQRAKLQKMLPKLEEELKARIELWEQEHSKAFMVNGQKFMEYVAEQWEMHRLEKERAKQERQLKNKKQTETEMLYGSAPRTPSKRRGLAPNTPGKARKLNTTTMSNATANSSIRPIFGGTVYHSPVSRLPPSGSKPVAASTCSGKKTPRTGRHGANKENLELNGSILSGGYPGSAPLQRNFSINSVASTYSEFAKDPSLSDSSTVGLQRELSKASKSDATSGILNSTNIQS

microtubules polymerised from tubulin, sequence (P68363 whole entry, chain 1 of 2): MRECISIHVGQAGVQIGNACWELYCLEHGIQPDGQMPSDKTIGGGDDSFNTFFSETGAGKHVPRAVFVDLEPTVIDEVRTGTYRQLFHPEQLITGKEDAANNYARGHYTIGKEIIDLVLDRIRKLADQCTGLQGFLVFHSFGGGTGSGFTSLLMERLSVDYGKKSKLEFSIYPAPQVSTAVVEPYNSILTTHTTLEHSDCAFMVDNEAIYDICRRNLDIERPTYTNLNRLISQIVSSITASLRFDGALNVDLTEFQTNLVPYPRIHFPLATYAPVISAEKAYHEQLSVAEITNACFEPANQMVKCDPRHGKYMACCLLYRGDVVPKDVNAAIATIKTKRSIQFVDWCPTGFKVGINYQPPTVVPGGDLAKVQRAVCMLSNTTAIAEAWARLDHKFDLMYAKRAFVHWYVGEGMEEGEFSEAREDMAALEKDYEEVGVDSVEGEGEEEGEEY
microtubules polymerised from tubulin, sequence (A8K068 whole entry, chain 2 of 2, further chain): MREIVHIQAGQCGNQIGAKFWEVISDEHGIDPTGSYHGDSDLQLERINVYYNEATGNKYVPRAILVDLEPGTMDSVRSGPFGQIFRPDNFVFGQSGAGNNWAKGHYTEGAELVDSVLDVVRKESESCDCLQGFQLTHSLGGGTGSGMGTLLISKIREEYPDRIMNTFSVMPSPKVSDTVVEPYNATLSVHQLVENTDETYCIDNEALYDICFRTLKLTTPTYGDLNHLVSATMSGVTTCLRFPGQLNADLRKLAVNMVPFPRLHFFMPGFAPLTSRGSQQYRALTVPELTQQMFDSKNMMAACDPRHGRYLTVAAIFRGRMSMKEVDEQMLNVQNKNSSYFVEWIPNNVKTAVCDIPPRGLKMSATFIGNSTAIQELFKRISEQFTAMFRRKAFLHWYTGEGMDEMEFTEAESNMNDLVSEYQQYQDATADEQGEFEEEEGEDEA
PRC1(1-486), sequence (O43663 1-486): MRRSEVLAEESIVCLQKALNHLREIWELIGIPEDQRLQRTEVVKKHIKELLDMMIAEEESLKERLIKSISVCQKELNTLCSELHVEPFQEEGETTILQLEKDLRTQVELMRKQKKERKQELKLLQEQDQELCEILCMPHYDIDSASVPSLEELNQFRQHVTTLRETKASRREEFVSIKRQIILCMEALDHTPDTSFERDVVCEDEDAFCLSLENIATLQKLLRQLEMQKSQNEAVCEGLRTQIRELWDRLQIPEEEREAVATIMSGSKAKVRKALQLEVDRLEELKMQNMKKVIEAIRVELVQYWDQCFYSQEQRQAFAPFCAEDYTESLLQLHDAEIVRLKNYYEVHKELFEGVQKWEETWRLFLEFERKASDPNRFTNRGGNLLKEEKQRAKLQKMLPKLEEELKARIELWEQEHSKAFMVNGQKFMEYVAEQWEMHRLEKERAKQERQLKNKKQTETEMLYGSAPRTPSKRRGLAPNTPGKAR

| Substance | GFP intensity per pixel at 8 nM [1] | GFP intensity per pixel at 40 nM [1] | GFP intensity per pixel at 60 nM [1] | GFP intensity per pixel at 80 nM [1] | GFP intensity per pixel at 160 nM [1] | GFP intensity per pixel at 400 nM [1] | GFP intensity per pixel at 800 nM [1] | Kd (PRC1(1-486)) [µM] | Kd [2] [µM] |
| --- | --- | --- | --- | --- | --- | --- | --- | --- | --- |
| full-length CLASP1-GFP (natural protein) | 26.9 | 95.3 | 109 | 400 | 398 | 754 | 854 |  |  |
| CLASP1(654-1471)-GFP (domain or fragment) |  |  |  |  |  |  |  | 1.04 | 1.19 |
